In patent publication US20220112558:

Target: 14-3-3 proteins

B1: ARAF mutant (ARAF-S214P), full-length, with two FLAG tags and two STREP tags, expressed in HEK293T cells (protein)
chain: DYKDDDDKDYKDDDDKWSHPQFEKWSHPQFEKMEPPRGPPANGAEPSRAVGTVKVYLPNKQRTVVTVRDGMSVYDSLDKALKVRGLNQDCCVVYRLIKGRKTVTAWDTAIAPLDGEELIVEVLEDVPLTMHNFVRKTFFSLAFCDFCLKFLFHGFRCQTCGYKFHQHCSSKVPTVCVDMSTNRQQFYHSVQDLSGGSRQHEAPSNRPLNELLTPQGPSPRTQHCDPEHFPFPAPANAPLQRIRSTPTPNVHMVSTTAPMDSNLIQLTGQSFSTDAAGSRGGSDGTPRGSPSPASVSSGRKSPHSKSPAEQRERKSLADDKKKVKNLGYRDSGYYWEVPPSEVQLLKRIGTGSFGTVFRGRWHGDVAVKVLKVSQPTAEQAQAFKNEMQVLRKTRHVNILLFMGFMTRPGFAIITQWCEGSSLYHHLHVADTRFDMVQLIDVARQTAQGMDYLHAKNIIHRDLKSNNIFLHEGLTVKIGDFGLATVKTRWSGAQPLEQPSGSVLWMAAEVIRMQDPNPYSFQSDVYAYGVVLYELMTGSLPYSHIGCRDQIIFMVGRGYLSPDLSKISSNCPKAMRRLLSDCLKFQREERPLFPQILATIELLQRSLPKIERSASEPSLHRTQADELPACLLSAARLVP
activation of ERK1/2, as measured by increased phosphorylation: significantly greater activation of ERK1/2, as measured by increased phosphorylation, compared with HEK293T cells expressing wildtype (WT) ARAF
